Assays:
[1] = biological target: HLA-A1-MAGE-A3 pMHC (human); assay: SPR, biotinylated HLA-A1-MAGE-A3 on streptavidin chip, soluble TCR flowed
[2] = biological target: HLA-A1-TITIN pMHC (human); assay: SPR, biotinylated HLA-A1-TITIN on streptavidin chip, soluble TCR flowed

Kd [1]: 1.24 µM
Kd [2]: 7.7 µM
B1: A3A TCR (TCR, V domains shown)
V domain 1: KQEVTQIPAALSVPEGENLVLNCSFTDSAIYNLQWFRQDPGKGLTSLLLVRPYQREQTSGRLNASLDKSSGRSTLYIAASQPGDSATYLCAVRPGGAGSYQLTFGKGTKLSVIP
V domain 2: KAGVTQTPRYLIKTRGQQVTLSCSPISGHRSVSWYQQTPGQGLQFLFEYFSETQRNKGNFPGRFSGRQFSNSRSEMNVSTLELGDSALYLCASSPNMADEQYFGPGTRLTVTE

Reference: patent publication US20240299546A1
